Common to all, as to experiment: cell-based or functional assay
Experiment [1] deals with SARS-CoV-2 Delta variant spike protein (SARS-CoV-2).
Experiment [2] addresses SARS-CoV-2 Omicron variant B.1.1.529 spike protein (SARS-CoV-2).
Experiment [3] concerns the target SARS-CoV-2 Omicron variant BA.2.75.2 spike protein (SARS-CoV-2).
For experiment [4], the target named is SARS-CoV-2 Omicron variant BA.4.6 spike protein (SARS-CoV-2).
Experiment [5] deals with SARS-CoV-2 Omicron variant BA.4/5 spike protein (SARS-CoV-2).
In experiment [6] the target is SARS-CoV-2 Omicron variant BF.7 spike protein (SARS-CoV-2).
The target of experiment [7] is SARS-CoV-2 Omicron variant BQ.1 spike protein (SARS-CoV-2).
The target of experiment [8] is SARS-CoV-2 Omicron variant BQ.1.1 spike protein (SARS-CoV-2).
The target of experiment [9] is SARS-CoV-2 Omicron variant XBB spike protein (SARS-CoV-2).
For experiment [10], the target named is SARS-CoV-2 spike protein, Omicron variant BA.2.75.2 (SARS-CoV-2).
The target of experiment [11] is SARS-CoV-2 spike protein, Omicron variant BA.4/5 (SARS-CoV-2).
In experiment [12] the target is SARS-CoV-2 spike protein, Omicron variant BQ.1 (SARS-CoV-2).
For experiment [13], the target named is SARS-CoV-2 spike protein, Omicron variant BQ.1.1 (SARS-CoV-2).
Experiment [14] addresses SARS-CoV-2 spike protein, Omicron variant XBB (SARS-CoV-2).

B1: MX1022 (bispecific antibody)
chain: DTVMTQSPLSLPVTPGEPASISCRSSQSLLNSNGYNYLDWYVQKPGQSPQLLIYLGSNRASGVPDRFSGSGSGTDFTLKISRVEAEDVGVYYCMQPLQTPLFTFGPGTKVEIKGGSSGEIVMTQSPAILSVSPGERATLSCRASQSVAINLAWYQQKPGQAPRLLIYAASSRATGIPGRFSGSGSETNFTLTISSLQSGDFAVYYCQQYITWPPSYTFGQGTKLEIKGGGGSGGSGSGGGGSASGSGEVQLVESGGALIQPGGSLRLSCAASGIIVSANYMSWVRQAPGKGLEWVSVIYSGGSTFYADSVKGRFTISRDNSKNTLYLEMNSLRAEDTAVYYCARDAPILGVSDWGQGTLVTVSSGGSSGQVTLRESGPALVKPTQTLTLTCTFSGFSLSTRGVCVSWIRQPPGKALEWLAFIDWDDDKYYNTSLKTRLTISKDTSKNQVVLTMTNVHPVDTATYYCARISSHHGSSWCTTFDYWGQGALVTVSAASGGSGDKTHTCPPCPAPELLGGPSVFLFPPKPKDTLMISRTPEVTCVVVDVSHEDPEVKFNWYVDGVEVHNAKTKPREEQYNSYVVSVLTVLHQDWLNGKEYKCKVSNKALPAPIEKTISKAKGQPREPQVYTLPPSRDELTKNQVSLTCLVKGFYPSDIAVEWESNGQPENNYKTTPPVLDSDGSFFKKLTVDKSRWQQGNVFSCSVLHEALHSHYTQKSLSLSPG
In the case of B1, the IC50, pseudovirus neutralization is 31.5 ng/mL in experiment [1]; 4.22 ng/mL in experiment [2]; 0.89 ng/mL in experiment [3]; 4.9 ng/mL in experiment [4]; 1.98 ng/mL in experiment [5]; 2.38 ng/mL in experiment [6]. In addition, the IC50, pseudovirus neutralization in [7] was determined as 6.58 ng/mL; in experiment [8], 1.13 ng/mL; in experiment [9], 5.85 ng/mL. The IC80, pseudovirus neutralization was 25.4 ng/mL in experiment [1]; 4.74 ng/mL in experiment [2]; 2.8 ng/mL in experiment [3]; 8.82 ng/mL in [4]; 3.33 ng/mL in [5]; 8.29 ng/mL in [6]. For the same molecule, the IC80, pseudovirus neutralization in experiment [7] was determined as 19.2 ng/mL; in experiment [8], 6.72 ng/mL; in experiment [9] it was 12.4 ng/mL.

B2: MX1073 (protein)
chain 1: QTVVTQEPSFSVSPGGTVTLTCGLSSGSVSTAYFPSWYQQTPGQAPRTLIYGTNTRSSGVPDRFSGSILGNKAALTITGAQADDESDYYCVLYMGRGIVVFGGGTKLTVLGGSSGEIVLTQSPGTLSLSPGETATLSCRASQSFSSDLAWYQQKPGQAPRLLIYGASSRATGIPDRFSGSGSGTDFTLTISRLEPADFAVYYCQQYGSSPPVTFGGGTKVEIKGGGGSGGSGSGGGGSASGSGEVQLVESGGGLIQPGGSLRLSCAASGVIVSYNYMNWVRQAPGKGLEWVSVIYSGGSTFYADSVRGRFTISRDNSKNTLYLQMNSLRAEDTAVYYCARDLGPAGAFDIWGLGTMVTVSSGGSSGQVQLVESGGGVVQPGRSLRLSCAASGFTLSSYGMHWVRQAPGKGLEWVAVISYDGSNKYYVDSVKGRFTISRDNSKNTLYLQMNSLRAEDTAVYYCRWAYWELLPDYYYGMDVWGQGTTVTVSSASGGSGDKTHTCPPCPAPELLGGPSVFLFPPKPKDTLMISRTPEVTCVVVDVSHEDPEVKFNWYVDGVEVHNAKTKPREEQYNSYVVSVLTVLHQDWLNGKEYKCKVSNKALPAPIEKTISKAKGQPREPQVYTLPPCRDELTKNQVSLWCLVKGFYPSDIAVEWESNGQPENNYKTTPPVLDSDGSFFKKLTVDKSRWQQGNVFSCSVLHEALHSHYTQKSLSLSPG
chain 2: QTVVTQEPSFSVSPGGTVTLTCGLSSGSVSTAYFPSWYQQTPGQAPRTLIYGTNTRSSGVPDRFSGSILGNKAALTITGAQADDESDYYCVLYMGRGIVVFGGGTKLTVLGGSSGDTVMTQSPLSLPVTPGEPASISCRSSQSLLNSNGYNYLDWYVQKPGQSPQLLIYLGSNRASGVPDRFSGSGSGTDFTLKISRVEAEDVGVYYCMQPLQTPLFTFGPGTKVEIKGGGGSGGSGSGGGGSASGSGQVTLRESGPALVKPTQTLTLTCTFSGFSLSTRGVCVSWIRQPPGKALEWLAFIDWDDDKYYNTSLKTRLTISKDTSKNQVVLTMTNVHPVDTATYYCARISSHHGSSWCTTFDYWGQGALVTVSAGGSSGQVQLVESGGGVVQPGRSLRLSCAASGFTLSSYGMHWVRQAPGKGLEWVAVISYDGSNKYYVDSVKGRFTISRDNSKNTLYLQMNSLRAEDTAVYYCRWAYWELLPDYYYGMDVWGQGTTVTVSSASGGSGDKTHTCPPCPAPELLGGPSVFLFPPKPKDTLMISRTPEVTCVVVDVSHEDPEVKFNWYVDGVEVHNAKTKPREEQYNSYVVSVLTVLHQDWLNGKEYKCKVSNKALPAPIEKTISKAKGQPREPQVCTLPPSRDELTKNQVSLSCAVKGFYPSDIAVEWESNGQPENNYKTTPPVLDSDGSFFLVSKLTVDKSRWQQGNVFSCSVLHEALHSHYTQKSLSLSPG
As to B2, the IC50, pseudovirus neutralization came out at 1.81 ng/mL in experiment [10]; 2.78 ng/mL in [11]; 1.9 ng/mL in experiment [12]; 5.77 ng/mL in experiment [13]; 9.3 ng/mL in [14]. Further, the IC80, pseudovirus neutralization in experiment [10] came out at 3.35 ng/mL; in experiment [11], 4.28 ng/mL; in experiment [12], 10.8 ng/mL; in experiment [13], 24.1 ng/mL; in experiment [14] it was 24 ng/mL.

B3: MX1021 (bispecific antibody)
chain: QTVVTQEPSFSVSPGGTVTLTCGLSSGSVSTAYFPSWYQQTPGQAPRTLIYGTNTRSSGVPDRFSGSILGNKAALTITGAQADDESDYYCVLYMGRGIVVFGGGTKLTVLGGSSGEIVMTQSPAILSVSPGERATLSCRASQSVAINLAWYQQKPGQAPRLLIYAASSRATGIPGRFSGSGSETNFTLTISSLQSGDFAVYYCQQYITWPPSYTFGQGTKLEIKGGGGSGGSGSGGGGSASGSGEVQLVESGGALIQPGGSLRLSCAASGIIVSANYMSWVRQAPGKGLEWVSVIYSGGSTFYADSVKGRFTISRDNSKNTLYLEMNSLRAEDTAVYYCARDAPILGVSDWGQGTLVTVSSGGSSGQVQLVESGGGVVQPGRSLRLSCAASGFTLSSYGMHWVRQAPGKGLEWVAVISYDGSNKYYVDSVKGRFTISRDNSKNTLYLQMNSLRAEDTAVYYCRWAYWELLPDYYYGMDVWGQGTTVTVSSASGGSGDKTHTCPPCPAPELLGGPSVFLFPPKPKDTLMISRTPEVTCVVVDVSHEDPEVKFNWYVDGVEVHNAKTKPREEQYNSYVVSVLTVLHQDWLNGKEYKCKVSNKALPAPIEKTISKAKGQPREPQVYTLPPSRDELTKNQVSLTCLVKGFYPSDIAVEWESNGQPENNYKTTPPVLDSDGSFFKKLTVDKSRWQQGNVFSCSVLHEALHSHYTQKSLSLSPG
For the molecule B3, the IC50, pseudovirus neutralization in experiment [1] came to 64.8 ng/mL; in experiment [2] it was 2.91 ng/mL; in experiment [3], 3.73 ng/mL; in experiment [4] it was 12.9 ng/mL; in experiment [5] it was 13.8 ng/mL; in experiment [6], 11.3 ng/mL. The values for the IC50, pseudovirus neutralization in [7], in [8] and in experiment [9] were 11.3 ng/mL, 2.77 ng/mL and 14.7 ng/mL, respectively. Further, the IC80, pseudovirus neutralization in experiment [1] is 219 ng/mL; in experiment [2], 13.1 ng/mL; in [3] it was 13.2 ng/mL; in [4], 41.4 ng/mL; in experiment [5] it was 26 ng/mL; in experiment [6], 31.7 ng/mL. The IC80, pseudovirus neutralization stood at 51.9 ng/mL in experiment [7], 28.5 ng/mL in experiment [8] and 61.1 ng/mL in [9].
